According to patent US20220380450A1 (AstraZeneca / MedImmune, published 2022):
Blank lines part the entries; values can stand above or below the binder they belong to.

What was measured:
[1] = target: T1, RAGE-Fc (R&D Systems #1145-RG) (UniProt Q15109 23-344, limits assumed); assay: ELISA: biotinylated oxIL-33 on streptavidin plate, RAGE-Fc at 10 µg/mL, anti-human IgG HRP
T1 construct: Bought reagent; not shown: Fc part of the bought fusion (detected with anti-human IgG HRP)
Description: (§1) Plates were washed 3× with 200 μl PBS-T (PBS+1% (v/v) Tween-20) and blocked with 300 μl/well blocking buffer (PBS with 1% BSA (Sigma, A9576)) for 1 hour. […] Plates were washed with 200 μl PBS-T three times. […] Plates were washed 3× with PBS-T and developed with TMB, 100 μl/well (Sigma, T0440). The reaction was quenched with 50 μl/well 0.1M H₂SO₄. Absorbance was read at 450 nm on the Cytation Gen5 or similar equipment.

[2] = target: T2, epidermal growth factor receptor (EGFR), endogenous in NHBE, DHBE and A549 cells (human, UniProt P00533 25-1210); assay: anti-EGFR (AF231) immunoprecipitation from NHBE lysate, LC-MS; cells stimulated with 30 ng/ml reduced IL-33-01 for 10 min; IL-33 not detected in complex with EGFR
T2 construct: whole, on cells; Endogenous receptor; also called EGF Receptor

[3] = target: T1, RAGE-Fc (R&D Systems #1145-RG); assay: ELISA, FIG. 7A: biotinylated HMGB1 on streptavidin plate, RAGE-Fc
Description: as §1

[4] = target: T3, EGFR-Fc (R&D Systems #344-ER-050) (UniProt P00533 25-645); assay: ELISA: biotinylated HMGB1 on streptavidin plate, EGFR-Fc with untagged RAGE (Sino Biological 11629-HCCH) at 10 µg/mL, anti-human IgG HRP
T3 construct: Bought reagent; not shown: Fc part of the bought fusion (detected with anti-human IgG HRP)
Description: as §1

T1 sequence (Q15109 23-344 limits assumed): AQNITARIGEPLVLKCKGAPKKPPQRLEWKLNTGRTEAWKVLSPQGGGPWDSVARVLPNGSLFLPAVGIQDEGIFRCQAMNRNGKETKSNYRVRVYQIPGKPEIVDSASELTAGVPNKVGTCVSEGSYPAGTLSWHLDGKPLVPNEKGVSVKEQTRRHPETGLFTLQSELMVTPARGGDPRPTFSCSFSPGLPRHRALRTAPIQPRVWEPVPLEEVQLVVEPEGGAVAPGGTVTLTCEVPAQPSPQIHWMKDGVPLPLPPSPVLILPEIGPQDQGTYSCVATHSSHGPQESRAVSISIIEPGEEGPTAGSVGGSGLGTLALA

binding result [1]: binds
B1: Avitag_IL-33-01 (oxidised IL-33) (ligand)
chain: MHHHHHHHHHHAAGLNDIFEAQKIEWHEAAIEGRSITGISPITEYLASLSTYNDQSITFALEDESYEIYVEDLKKDEKKDKVLLSYYESQHPSNESGDGVDGKMLMVTLSPTKDFWLHANNKEHSVELHKCEKPLPDQAFFVLHNMHSNCVSFECKTDPGVFIGVKDNHLALIKVDSSENLCTENILFKLSET
modifications: biotinylated on the Avitag with BirA; oxidised (disulphide bonded) form
notes: also called oxIL-33; biotinylated oxidised N-terminal tagged His10/Avitag IL33-01

binding result [2]: no binding
B2: Untagged IL33-01 (ligand)
chain: SITGISPITEYLASLSTYNDQSITFALEDESYEIYVEDLKKDEKKDKVLLSYYESQHPSNESGDGVDGKMLMVTLSPTKDFWLHANNKEHSVELHKCEKPLPDQAFFVLHNMHSNCVSFECKTDPGVFIGVKDNHLALIKVDSSENLCTENILFKLSET
notes: Reduced wild type form; also called reduced IL-33; WT IL-33

binding result [3]: binds
binding result [4]: no binding (tested: 10 µg/mL)
B3: HMGB1 (R&D systems 1690-HMB-050), biotinylated (ligand, UniProt P09429 1-215, looked up)
chain: MGKGDPKKPRGKMSSYAFFVQTCREEHKKKHPDASVNFSEFSKKCSERWKTMSAKEKGKFEDMAKADKARYEREMKTYIPPKGETKKKFKDPNAPKRPPSAFFLFCSEYRPKIKGEHPGLSIGDVAKKLGEMWNNTAADDKQPYEKKAAKLKEKYEKDIAAYRAKGKPDAAKKGVVKAEKSKKKKEEEEDEEDEEDEEEEEDEEDEDEEEDDDDE
modifications: biotinylated via free amines (EZ link Sulfo-NHS-LC-Biotin)
notes: Immobilised on streptavidin plates in the ELISA of section 10; called a known RAGE ligand / bona fide RAGE agonist
